In patent US20100003258A1 (AVEO PHARMACEUTICALS, published 2010):

Tests used:
[1] = biological target: T1, recombinant human FGFR3 IIIb Fc fusion protein (human, UniProt P22607-2 23-377, limits assumed); assay: SPR (Biacore T100), antibody captured on anti-mouse Ig, rhFGFR3 IIIb Fc as analyte, 25 C
T1 construct: Bought reagent; the IIIb splice isoform is meant; also called rhFGFR3 IIIb Fc; hFGFR3 IIIb; not shown: Fc fragment (removable by Factor Xa, detected with anti-human IgG)
T1 sequence (looked up): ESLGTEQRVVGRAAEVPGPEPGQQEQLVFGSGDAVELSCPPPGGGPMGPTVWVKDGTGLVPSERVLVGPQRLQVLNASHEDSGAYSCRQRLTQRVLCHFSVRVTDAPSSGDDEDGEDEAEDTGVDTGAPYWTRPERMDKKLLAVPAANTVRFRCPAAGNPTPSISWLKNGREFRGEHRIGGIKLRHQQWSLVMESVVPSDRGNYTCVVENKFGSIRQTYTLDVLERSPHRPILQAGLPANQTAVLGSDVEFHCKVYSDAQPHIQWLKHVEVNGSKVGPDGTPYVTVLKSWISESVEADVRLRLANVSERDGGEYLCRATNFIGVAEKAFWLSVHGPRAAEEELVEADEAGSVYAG
Method: The binding affinities and kinetics of interaction of the monoclonal antibodies (15D8, 27H2, 2G4, and 4E7(7D12)) produced in Example 1 against recombinant human FGFR3 (IIIb and IIIc isoforms) Fc fusion protein (rhFGFR3 IIIb Fc or rhFGFR3 IIIc Fc) were measured by surface plasmon resonance using a Biacore™ T100 (Biacore) instrument.
Rabbit anti-mouse immunoglobulins (Biacore, Catalog No. BR-1005-14) were immobilized on carboxymethylated dextran CM4 sensor chips (Biacore, Catalog No. BR-1005-34) by amine coupling (Biacore, Catalog No. BR-1000-50) using a standard coupling protocol according to manufacturer's instructions.
The antibodies were captured in an individual flow cell at a flow rate of 10 μl/min. Injection time was varied for each antibody to yield approximately 40-50 RU of antibody captured for each cycle. Buffer or rhFGFR3 IIIb Fc (R&D Systems, Catalog No. 1264-FR-050) or rhFGFR3 IIIc Fc (R&D Systems, Catalog No. 766-FR-050) diluted in running buffer was injected sequentially over a reference surface (no antibody captured) and the active surface (antibody to be tested) for 300 sec at 60 μl/min. The dissociation phase was monitored for 30 minutes. The surface was then regenerated with two 60-seconds injection of 10 mM Glycine-HCl, pH 1.7 (made from Glycine pH 1.5 (Biacore, Catalog No. BR-1003-54) and pH 2.0 (Biacore, Catalog No. BR-1003-55)) at a flow rate of 60 μl/min. rhFGFR3 Fc concentrations tested were 0.62 nM to 40 nM.

[2] = biological target: T1, recombinant human FGFR3 IIIb Fc fusion …; assay: ECL competition assay: inhibition of rhFGFR3 IIIb Fc binding to coated FGF1 (competitor FGF1); 15D8 IgG1, not Fab; average of n = 3
Method: (§1) The antibodies were tested by ECL (Electrochemiluminescence) assay for inhibition of hFGFR3 IIIB binding to FGF-1. […] The plates then were washed 3 times with PBS and blocked with 200 μl of PBS containing 5% BSA (Sera Care Life Sciences, Catalog No. AP-4510-80) and 5 μg/mL heparin (Sigma, Catalog No. H4784) for 1 hour at room temperature. The antibodies (concentration range: 0.029-30 μg/mL) were incubated for 1 hour at room temperature with 1.7 μg/mL rhFGFR3 IIIb Fc (R&D Systems, Catalog No. 1264-FR-050) and 5 μg/mL heparin. After washing the plates 3 times with PBS, 25 μl of the antibody-receptor mixture was added to the plates for another hour at room temperature with agitation. The plates were washed three times with PBS and incubated with 25 μl of 1 μg/mL ST-anti-human IgG antibody (Meso Scale Discovery, Catalog No. R32AJ-1) for 1 hour at room temperature with agitation. The plates then were washed 3 times with PBS, and 150 μl of 1× read buffer (Meso Scale Discovery, Catalog No. R92TC-1) was added to each well before the plates were analyzed on a Sector Imager 2400 (Meso Scale Discovery) instrument.

[3] = biological target: T1, recombinant human FGFR3 IIIb Fc fusion …; assay: ECL competition assay: inhibition of rhFGFR3 IIIb Fc binding to coated FGF1 (competitor FGF1)
Method: as §1

B1: anti-FGFR3 monoclonal antibody 15D8 (antibody, mouse IgG1, kappa)
heavy: EIQLQQSGPELVKPGASVKVSCKASGYAFTSYNMYWVKQSHGKSLEWIGYIDPYNGGTSYNQKFKGKATLTVDKSSSTAYMHLNSLTSEDSAVYYCAREGGNYEAWFAYWGQGTLVTVSAAKTTPPSVYPLAPGSAAQTNSMVTLGCLVKGYFPEPVTVTWNSGSLSSGVHTFPAVLQSDLYTLSSSVTVPSSTWPSETVTCNVAHPASSTKVDKKIVPRDCGCKPCICTVPEVSSVFIFPPKPKDVLTITLTPKVTCVVVDISKDDPEVQFSWFVDDVEVHTAQTQPREEQFNSTFRSVSELPIMHQDWLNGKEFKCRVNSAAFPAPIEKTISKTKGRPKAPQVYTIPPPKEQMAKDKVSLTCMITDFFPEDITVEWQWNGQPAENYKNTQPIMDTDGSYFVYSKLNVQKSNWEAGNTFTCSVLHEGLHNHHTEKSLSHSPGK
light: QIVLTQSPALMSASPGEKVTMTCSASSSVSYMYWYQQKPRSSPKPWIYLTSYLASGVPARFSGSGSGTSYSLTISSMEAEDAATYYCQQWSSYPLTFGAGTKLELKRADAAPTVSIFPPSSEQLTSGGASVVCFLNNFYPKDINVKWKIDGSERQNGVLNSWTDQDSKDSTYSMSSTLTLTKDEYERHNSYTCEATHKTSTSPIVKSFNRNEC
notes: also called 15D8 IgG1; murine antibody 15D8
With B1 the Kd [1] was 2.6 nM, the koff [1] was 0.00033 s⁻¹ and the kon [1] was 200000 M⁻¹ s⁻¹. The IC50 [2] was 15.4 nM and the “Maximum Neutralization (%)” value [3] was 80.5%.
